This data set deals with the molecule itself. Put plainly: SEC; Hi-Load Superdex 200 16/60 directly after Ni-NTA chromatography; 2 M NaCl, 5 mM MgCl2, 50 mM Tris-HCl, pH 9.2; 1 mL/min; masses from a calibration curve of marker proteins (12.4-200 kDa). For orientation: In gel filtration, larger molecules generally elute earlier.

B1: Haloferax volcanii AglM, C-terminally polyhistidine-tagged (enzyme, UniProt D4GYH5 1-430, looked up)
chain: MELSIIGSGYVGTTIAACFAELGHDVVNVDIDEDIVASLNDGQAPIHEPGLAELVERYAGDRLRATTDYDEILDTDATFLALPTPSTDDGSIDLGAMKTAATSLGETLARKDDSHLVVTKSTVVPRTTVDVIGPRIEEASGKRVGDGLDIAMNPEFLREGTAVDDFLSPDKIVLGAQTDRAYETLAEIFAPLVERAGNPPVVKTGISEAEMIKYANNAFLASKISLANDLANICKVFGVDSAEVLESIGLDSRIGSAFLGAGLGWGGSCFPKDTAAIIAAARAQGYEPRLLQAAVDVNDGQPERMLDLLRERFDLDGKRVAVLGLAFKPGTDDIRKSRAILLIQALLDAGADVVGYDPVATENMRERFPDIDYADSAADALANADAALVATDWDEFAALDDEFDAMRERIVIDGRRIVTRREGLDYESLV
notes: AglM, UDP-glucose dehydrogenase of Haloferax volcanii, 430 residues; gene amplified from genomic DNA with primers at the start and end of the gene; Calculated mass of the His-tagged chain close to 47 kDa; also called His-tagged AglM; UDP-glucose dehydrogenase; source: Hfx. volcanii cells transformed with pHis-AglM, purified (Ni-NTA, then size-exclusion chromatography); not shown: polyhistidine, …
What is called stoichiometry N is the number of molecules, sites or subunits per partner or assembly. Take B1: the “stoichiometry N” value was determined as 12.
